Like-named read-outs stand apart in the source and are kept apart here. Some results are limits rather than exact numbers.

This note sets out measurements from patent US20080095824A1, “Delivery of drugs from sustained release devices implanted in myocardial tissue or in the pericardial space” (Durect Corporation, priority 2001, published 2008).

A short description of data set [1]: In vitro release from SAIB depot of Example 2A. It counts as physicochemical. The conditions noted are these: SAIB:benzyl benzoate:DL-PLG 83:12:5 depot, 500 μL in PBS pH 7.4, 37° C. The procedure:
In this embodiment sotalol (an anti-arrhythmic) is delivered from a depot comprising sucrose acetate isobutyrate (SAIB). A formulation is prepared by mixing SAIB (Eastman Chemical Co.) and benzyl benzoate (Aldrich Chemical Co.) and ploy (DL-lactide-co-glycolide) (DL-PLG) or DL-poly(lactide) (DLPL) in a ratio of 83:12:5 (weight basis) and stirring until a homogeneous mixture is achieved. 10 μg of sotalol is added to 500 μL of the SAIB:benzyl benzoate:DLPLG formulation.
The final depot formulation is prepared by passing the mixture repeatedly between a pair of 5 ml syringes equipped with needles. Multiple passes are performed until a solution is achieved. The final concentration of sotalol in the depot is 0.02 μg/ul.
To determine, in vitro, the release of […] from the formulation, 500 μL of the depot is placed in 750 μL of dissolution buffer (PBS, 0.01 M, pH 7.4 with sodium azide) in a 1.5 mL Eppendorf microcentrifuge tube. The formulations are incubated at 37° C. with no agitation. The entire dissolution buffer is removed and replaced with fresh buffer at the desired sampling times (0.25, 0.5, 1, 2, 3, 4, 5, 6, 24 hr and daily thereafter). The samples are assayed for protein concentration by ELISA. The release rate of drug from this depot is about 0.3 μg per day.

Data set [2] can be described thus: Pharmacokinetics after intrapericardial or intra-arterial bolus injection. The conditions noted are these: mean ± SE. It counts as in vivo, rats. How it is done:
Immediately after implantation of the pericardial catheter, rats (still under anesthesia) were provided either with a catheter in the right femoral artery essentially as described (Smits et al., 1982). Rats were allowed to recover at least 2 days before experimentation> One hour before start of the experiment, 20 μl pericardial fluid was withdrawn using a Hamilton 1705 (Hamilton Bonaduz, Bonaduz, Switzerland) syringe and 50 μl of saline were injected into pericardial space to check the integrity of the pericardial catheter. Injections of volumes up to 0.2 ml were previously shown to be without hemodynamic effects (Veelken et al., 1990). Blood (0.15-0.25 ml) was collected in a syringe, containing a minimal volume of heparin (Organon Teknika, Boxtel, the Netherlands). Pericardial fluid was diluted 10 times in PBS and the blood was centrifuged for 20 minutes at 3500 rpm to obtain plasma. These samples served as blanks for later analyses. Experiments in which substances were applied intrapericardially were started by a 50 μl bolus injection of the test substances into pericardial space, followed by 20 μl saline to flush the catheter. If substances were applied systemically, experiments were started by a 100 μl bolus injection of the substances and subsequent injection of 300 μl saline into the femoral artery catheter. FITC rat IgG, (10 mg/ml), Texas Red RSA (10 mg/ml), and FITC heparin (1 mg/ml) were dissolved in PBS.
Pericardial fluid (20 μl) and blood samples were taken at various time points after injection. To substitute withdrawn pericardial fluid, 20 μl of saline was injected into pericardial space immediately after sampling. After every sample, the femoral artery catheter was flushed with 0.3 to 0.4 ml saline and filled with heparinized (5-10 IU/ml) saline. Plasma and pericardial fluid samples were stored at −20° C. until analysis.
Data were standardized for bodyweights. Pharmacokinetic analysis of the data for each animal was conducted using the GPAD (GraphPAD Software, San Diego, Calif.) software package. Data were fitted to the exponential equation Ct=A.e^−αt+B. e^−βt of one-(i.e. A is fixed at 0) and two compartment models. Fits were compared using F-tests and data were log transformed for model judgement.

A short description of data set [3]: Time course of infusion into the pericardial space. The format is in vivo, male Wistar rats. The conditions noted are these: for plasma concentration over time: intrapericardial infusion, 7-day period (bFGF: day 3 through day 7). How it is done: Substances were administered to the pericardial space of male Wistar rats weighing 250-300 grams by infusion via catheter for 1 week using an Alzet™ osmotic minipump at a volume rate of about 1 μl/hour. Blood and pericardial fluid samples were taken at various time points and the concentration of administered substances was measured fluorimetrically (for fluorescently labeled compounds) or by HPLC (for steroids). Concentration of fluorescently labeled compounds is expressed as fluorescent units/ml fluid.

For data set [4] the following is noted: rat, in vivo.
Experimental: (§1) Minipumps, filled with solutions of the substances to be tested, were primed in saline at 37° C. at least 4 hours, prior to connection to the catheter. Before installing pumps, pericardial fluid and orbital sinus blood was sampled, to serve as blanks. 7 days after pump installment, rats were sacrificed by exsanguination under pentobarbitone and pericardial fluid and blood collected. To check for possible loss of substances during infusion, remaining pump contents were analyzed. […] Doses were chosen to achieve concentrations that were readily measurable but without pharmacological effects (risk of bleeding in the case of heparin); similar doses were applied systemically and intrapericardially to be able to make a good comparison between the two routes of administration. Solvent was PBS, except for Texas Red FGF-2 and cortisol which were dissolved in a 10 mg/ml solution of RSA in PBS.
The nature of data set [5]: in vivo. The conditions noted are these: rat.
Experimental: as §1
[6] abbreviates: pericardial fluid after intrapericardial bolus injection.
Where [7] appears, read: plasma after intra-arterial bolus injection.
The mark [8] stands for this setting: 7-day intrapericardial infusion (bFGF: days 3 to 7).

`CC(C)NCC(O)COc1cccc2ccccc12` (centres unmarked) [propranolol]: in data set [1], the “release rate of drug from depot” value is “about 0.3 μg per day”.
Turning to “Texas Red FGF-2: Texas Red-labelled fibroblast growth factor-2 (basic FGF)”, in data set [2] (setting [6]), the “Cl (clearance, Dose/AUC)” value turned out to be 0.483 ± 0.0198 mL/h/kg; the “Vc (initial central compartment volume)” value was 0.000497 ± 7e-05 L/kg; the t1/2α was found to be 0.288 ± 0.0917 h; the t1/2β was determined as 1.7 ± 0.317 h. Moreover, in data set [2] (setting [7]), the “Cl (clearance, Dose/AUC)” value is 5.05 ± 0.618 mL/h/kg; the “Vc (initial central compartment volume)” value came out at 0.03999 ± 0.000923 L/kg; the t1/2β turned out to be 5.63 ± 0.517 h. Moreover, the “ratio of concentration in pericardial fluid to concentration in plasma” value (“ratio of concentration” for short) in data set [3] (setting [8]) is listed as 2-10. The “concentration in the pericardial fluid over time” value in data set [3] (between day 3 and day 7 after the start of infusion) is “rose gradually”. For the same compound, in data set [3], the “plasma concentration over time” value is on record as “remained at a low level”. For the same compound, in data set [4], the Peric/plasma ratio is 6.85 ± 1.61 (4). The Peric/plasma ratio in data set [4] (iv) is on record as 1.01 ± 0.38 (2).
Turning to Cortisol carbonic acid, in data set [4], the “clearance derived from steady-state concentration (infusion dose rate/steady state concentration)” value was 1.85 ± 0.211 mL/h/kg.
Regarding `C[C@]12CCC(=O)C=C1CC[C@@H]1[C@@H]2[C@@H](O)C[C@@]2(C)[C@H]1CC[C@]2(O)C(=O)CO` [Cortisol], in data set [3] (setting [8]), the “ratio of concentration” value is reported as 12-50. Moreover, the “plasma concentration over time” value in data set [3] is listed as “remained at a constant, low level”. Moreover, the Kp in data set [3] (male, Wistar, rat, pericardial fluid and plasma, other: intrapericardial infusion, 7-day intrapericardial infusion (bFGF: days 3 to 7), read-out: ratio of concentration in pericardial fluid to concentration in plasma) fell in the range of 12 to 52. In data set [4] (7 days), the “Peric. Fluid concentration” value is on record as 1.59 ± 0.44 and the Plasma concentration was determined as 0.11 ± 0.03. Besides, the Kp at 7 days in data set [5] (Peric/plasma ratio) stood at 14.4 ± 0.55. In data set [5] (concentrations in plasma lower than in pericardial fluid), the Kp at 7 days was not below 7.
Consider “Texas Red RSA: Texas Red-labelled rat serum albumin”, for which the results for the “Cl (clearance, Dose/AUC)” value in data set [2] (setting [6]) and in data set [2] (setting [7]) were 0.223 ± 0.054 mL/h/kg and 2.43 ± 0.166 mL/h/kg, respectively. Also, the “Vc (initial central compartment volume)” value in data set [2] (setting [6]) turned out to be 0.000892 ± 0.000207 L/kg; in data set [2] (setting [7]), 0.034734 ± 0.001761 L/kg. Besides, the t1/2α in data set [2] (setting [6]) was determined as 0.78 ± 0.233 h; in data set [2] (setting [7]) it was 1.48 ± 0.247 h. Moreover, the t1/2β worked out at 9.82 ± 2.22 h in data set [2] (setting [6]) and 18.87 ± 5 h in data set [2] (setting [7]). Also, the “ratio of concentration” value in data set [3] (setting [8]) is 9-15. For the same compound, the “concentration in the pericardial fluid” value in data set [3] (day 1 after the start of intrapericardial infusion) is listed as “about 375 FU/ml”; in data set [3] (day 3, remained at this level through day 7), “about 190 FU/ml”. Besides, the “plasma concentration over time” value in data set [3] is reported as “remained at a constant, low level”. For the same compound, the Peric/plasma ratio in data set [4] was 8.11 ± 2.60 (4); in data set [4] (iv), 0.98 ± 0.26 (4).
